Experimental data taken from patent publication US20250042987A1 (BEIJING DONGFANG BIOTECH, published 2025).
Positions count from the first letter of the chain named.

B1: humanized anti-TSLP monoclonal antibody HA-II (antibody, human IgG1, kappa, L234A L235A, V domains shown)
VH: QVQLVQSGAEVKKPGASVKVSCKASGYTFTSYWMHWVRQAPGQGLEWIGLIDPSDSDTTYNQKFKGRATLTVDTSTSTAYMELSSLRSEDTAVYYCSRSLDGYFDHWGQGTLVTVSS
VL: DIVMTQSPSSLSASVGDRVTITCRASENIYSYLAWYQQKPGKAPKLLVYNARTLAEGVPSRFSGSGSGTDFTLTISSLQPEDFATYYCQHHYGTPWTFGGGTKVEIKR
B2: humanized anti-TSLP monoclonal antibody HA-IV (antibody, human IgG1, kappa, L234A L235A)
heavy: not shown
light: DIVMTQSPSSLSASVGDRVTITCRASENIYSYLAWYQQKPGKAPKLLVYNARTLAEGVPSRFSGSGSGTDFTLTISSLQPEDFATYYCQHHYGTPWTFGGGTKVEIKRTVAAPSVFIFPPSDEQLKSGTASVVCLLNNFYPREAKVQWKVDNALQSGNSQESVTEQDSKDSTYSLSSTLTLSKADYEKHKVYACEVTHQGLSSPVTKSFNRGEC
B3: humanized anti-TSLP monoclonal antibody HA-I (antibody, human IgG1, kappa, L234A L235A, V domains shown)
VH: B1 VH
VL: B1 VL with A43S
notes: also called HA-1; EB070
B4: humanized anti-TSLP monoclonal antibody HA-III (antibody, human IgG1, kappa, L234A L235A)
heavy: not shown
light: B2 light with V3Q

Target: T1, mouse TSLP-His (Sino Biological, product code 51005-M08H) (mouse, UniProt Q9JIE6 20-140)
T1 construct: Bought reagent; also called TSLP (Mouse); not shown: His tag
T1 sequence (looked up): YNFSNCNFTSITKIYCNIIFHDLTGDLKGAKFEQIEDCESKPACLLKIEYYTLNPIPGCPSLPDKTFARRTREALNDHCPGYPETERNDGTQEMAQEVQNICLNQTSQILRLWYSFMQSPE
Assay: ELISA, mouse TSLP-His coated

Row | Binder | binding result
1 | B1 | no binding (tested: 16 µg/ml (highest concentration))
2 | B2 | no binding (tested: 16 µg/ml (highest concentration))
3 | B3 | no binding (tested: 16 µg/ml (highest concentration))
4 | B4 | no binding (tested: 16 µg/ml (highest concentration))
